Results on 22 molecules are retold here after US20200262914A1 (MIT, published 2020).

T2 sequence (Q07817 1-209 limits assumed): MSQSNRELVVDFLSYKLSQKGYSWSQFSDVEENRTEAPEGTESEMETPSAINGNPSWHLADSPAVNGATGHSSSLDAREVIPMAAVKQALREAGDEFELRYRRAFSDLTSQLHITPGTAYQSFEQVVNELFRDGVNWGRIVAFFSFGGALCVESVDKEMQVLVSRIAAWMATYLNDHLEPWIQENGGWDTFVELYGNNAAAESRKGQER

The target in one assay is T1, human Mcl-1 (residues 172-327) (human, UniProt Q07820 172-327).
T1 construct: range 172-327
T1 sequence (Q07820 172-327 limits assumed): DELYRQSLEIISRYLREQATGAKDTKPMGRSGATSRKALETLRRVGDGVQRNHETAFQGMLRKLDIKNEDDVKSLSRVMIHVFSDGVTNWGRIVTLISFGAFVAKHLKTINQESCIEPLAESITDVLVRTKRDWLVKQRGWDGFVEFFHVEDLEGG
The assay can be described thus: yeast display, sparse titration, apparent KD.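 Further: designs displayed on the yeast cell surface, binding of soluble target protein measured at four concentrations spanning nanomolar to micromolar, apparent KD estimated from this sparse titration.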
Experimental: (§1) We measured binding of the designs to 1, 10, 100 or 1000 nM of Bcl-xL, Mcl-1 and Bfl-1 using yeast cell-surface display.
Regarding GRSEYEYIQELIRIGDIVDAYF [M11], the Kd was below 100 nM.

As for GRGQLEYIQELIRIGDIVDAYF [M6], the Kd is below 100 nM.

Consider GRSEYEYIQELVRIGDEVDAYF [M2], for which the Kd is below 100 nM.

Turning to GRSELEYIQELVRIGDEVDAYF [M5], the Kd is below 100 nM.

For GRSEYEYIQELIRIGDNVDAYF [M10], the Kd is below 100 nM.

Turning to GRGQYEYIQELIRIGDIVDAYF [M12], the Kd is below 100 nM.

GRSELEYIQELIRIGDIVDAYF [M8]: the Kd was below 100 nM.

Turning to GRSELEYIQELIRIGDNVDAYF [M7], the Kd was below 100 nM.

On to GRSELEVVQELVRIGDIVVAYF [M1], for which the Kd was below 100 nM.

As for GRSQYEVIQELIRIGDIVLAYF [M9], the Kd was below 100 nM.

With GRSLYEYIQELIRIGDEVTAYF [M3], the Kd is below 100 nM.

Consider GRSLLEYIQELIRIGDEVIAYF [M4], for which the Kd is below 100 nM.

The next assay concerns the target T2, human Bcl-xL (residues 1-209) (human, UniProt Q07817 1-209).
T2 construct: range 1-209
Nature of the assay: yeast display, sparse titration, apparent KD.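 Further: designs displayed on the yeast cell surface, binding of soluble target protein measured at four concentrations spanning nanomolar to micromolar, apparent KD estimated from this sparse titration.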
Experimental: as §1
For the molecule GQTLIWYGAQLRRYADEFAKQR [X2], the Kd is below 100 nM.

On to GQTLIWYGASLRRYADEFAKQR [X1], for which the Kd was below 100 nM.

For the molecule GQTLIWYGAQLRRVADDFAKQR [X4], the Kd is below 100 nM.

Another assay deals with T1, human Mcl-1 (residues 172-327). Nature of the assay: yeast surface display.
For GRSQIWYDQELVRSGDVNAAYR [MX2], the binding result was “no binding”.

For the molecule GRSQIWYDQELVRSGDENAAYR [MX3], the binding result is listed as “no binding”.

GRSQIWYDQELVRYADVNAAYR [MX4]: the binding result was “no binding”.

Take GRSQIWYVQELVRSGDVNHAYR [MX6]: the binding result is listed as “no binding”.

Consider GRSQIWYVQELVRGGDVNHAYR [MX1], for which the binding result was “no binding”.

Take GRSQIWYDQELVRYGDVNAAYR [MX5]: the binding result was “no binding”.

As to GRSEIWYDQELVRSGDVNAAYR [MX7], the binding result is given as “no binding”.

The next assay has as its target T2, human Bcl-xL (residues 1-209). Nature of the assay: yeast surface display.
Consider GRSQIWYDQELVRSGDVNAAYR [MX2], for which the binding result is recorded as “no binding”.

With GRSQIWYDQELVRSGDENAAYR [MX3], the binding result is reported as “no binding”.

Turning to GRSQIWYDQELVRYADVNAAYR [MX4], the binding result is on record as “no binding”.

For GRSQIWYVQELVRSGDVNHAYR [MX6], the binding result is on record as “no binding”.

For the molecule GRSQIWYVQELVRGGDVNHAYR [MX1], the binding result is reported as “no binding”.

For GRSQIWYDQELVRYGDVNAAYR [MX5], the binding result is reported as “no binding”.

Regarding GRSEIWYDQELVRSGDVNAAYR [MX7], the binding result was “no binding”.
